The values below come from US20180088111A1 (published 2018).

In test [1] the target is hPD1(25-167)-Myc-TVMV-His (human) (UniProt Q15116). Description: SPR (Biacore T200), hPD1(25-167)-His on chip, MIH4 analyte, no PDL-1. A general note: In SPR one partner is held on a chip, and binding of the other changes the refractive index at the surface.
For test [2], the target named is hPD1(25-167)-3S-IG (human) (UniProt Q15116). Description: SPR (Biacore T200), hPD1(25-167)-3S-IG on chip, MIH4 analyte, no PDL-1.
For test [3], the target named is hPD1(25-167)-Myc-TVMV-His (human) (UniProt Q15116). The experiment in a line: SPR (Biacore T200), hPD1(25-167)-His coupled to CM5 chip, MIH4 0.195-50 nM as analyte.
Test [4] has the same target. Description: SPR (Biacore T200), hPD1(25-167)-His on chip, MIH4 analyte, in the presence of PDL-1 ('2M' [sic]).
The target of the next test is T1, recombinant human PDL-1 (human, UniProt Q9NZQ7 19-239).
T1 construct: Bought (R&D Systems); whole entry named; also called hPDL-1; soluble human PDL-1
The experiment in a line: SPR (ProteOn XPR36), hPD1(25-167)-His captured by His-tag on HTG chip, hPDL-1 0.125-2 µM as analyte, equilibrium analysis.

T1 sequence (Q9NZQ7 19-239 limits assumed): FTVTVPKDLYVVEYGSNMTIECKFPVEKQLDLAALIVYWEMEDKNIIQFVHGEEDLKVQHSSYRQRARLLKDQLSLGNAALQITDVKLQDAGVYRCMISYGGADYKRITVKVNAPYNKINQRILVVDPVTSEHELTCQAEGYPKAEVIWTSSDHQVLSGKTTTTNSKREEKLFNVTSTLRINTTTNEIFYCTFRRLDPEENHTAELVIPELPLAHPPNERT
Experimental for recombinant human PDL-1: The surface was activated by injecting nickel (II) ions at 30 μl/min for 120 s. All analyses were performed at 25° C. in a PBS-0.05% TWEEN® solution.
The surface was regenerated with 300 mM EDTA (pH 8.5) following BioRad's recommendations. The binding data were analyzed using the PROTEON MANAGER™ Software from Bio-Rad.
Soluble, human PDL-1 was injected into the mobile phase as an analyte.

One may read the Kd as the constant that tells how readily two partners part at equilibrium. By koff is commonly meant a measure of how fast the partners let go of each other. A word on the kon: it is a measure of how fast the partners come together. Take MIH4 (antibody): the Kd in test [1] is 2.8 nM; in test [2] it was 0.5 nM; in test [4], 2.9 nM. The results for the off-rate (koff) in test [1], in test [2] and in test [4] were 0.00038 s⁻¹, 0.00024 s⁻¹ and 0.00034 s⁻¹, respectively. For the same molecule, the kon is 130000 M⁻¹ s⁻¹ in test [1], 480000 M⁻¹ s⁻¹ in test [2] and 120000 M⁻¹ s⁻¹ in test [4]. In test [3], this molecule came in with a response level (RU) of 0.2 to 49 RU.

B1: hPD1(25-167)-Myc-TVMV-His (receptor)
chain: LDSPDRPWNPPTFSPALLVVTEGDNATFTCSFSNTSESFVLNWYRMSPSNQTDKLAAFPEDRSQPGQDCRFRVTQLPNGRDFHMSVVRARRNDSGTYLCGAISLAPKAQIKESLRAELRVTERRAEVPTAHPSPSPRPAGQFQEQKLISEEDLGSSETVRFQGHHHHHH
modifications: glycosylated (HEK293 expression)
notes: range 25-167; Expressed in HEK293-6E cells; glycosylated monomer in solution by SEC-MALS; also called hPD1(25-167)-His; hPD-1(25-167)-His
Turning to B1, the Kd with recombinant human PDL-1 stood at 2800 nM.
